Experimental data from patent US20210139542A1.

Tests used:
HEWL-Hel-1024 (hen) [1] = biological target: HEWL-Hel-1024 (hen) (UniProt P00698); assay: BLI, mAb on AHC biosensor, 100 nM antigen
[2] = biological target: Hen Egg White Lysozyme (HEWL), wild type (hen) (UniProt P00698); assay: BLI, mAb on AHC biosensor, 100 nM antigen
HEWL-Full12 (hen) [3] = biological target: HEWL-Full12 (hen) (UniProt P00698); assay: BLI, mAb on AHC biosensor, 100 nM antigen, footnote e bounds the value
HEWL-Full24 (hen) [4] = biological target: HEWL-Full24 (hen) (UniProt P00698); assay: as above
[5] = biological target: Hen Egg White Lysozyme (HEWL), wild type (hen) (UniProt P00698); assay: ELISA, HEWL derivative coated, antibody in tenfold dilutions, A450
HEWL-Full12 (hen) [6] = biological target: HEWL-Full12 (hen) (UniProt P00698); assay: BLI, mAb on AHC biosensor, 100 nM antigen, footnote c bounds the value
HEWL-Full24 (hen) [7] = biological target: HEWL-Full24 (hen) (UniProt P00698); assay: as above
HEWL-Hel-1012 (hen) [8] = biological target: HEWL-Hel-1012 (hen) (UniProt P00698); assay: as above
HEWL-Hel-102 (hen) [9] = biological target: HEWL-Hel-102 (hen) (UniProt P00698); assay: as above
HEWL-Hel-1024 (hen) [10] = biological target: HEWL-Hel-1024 (hen) (UniProt P00698); assay: as above
HEWL-Hel-104 (hen) [11] = biological target: HEWL-Hel-104 (hen) (UniProt P00698); assay: as above
HEWL-Hel-1012 (hen) [12] = biological target: HEWL-Hel-1012 (hen) (UniProt P00698); assay: BLI, mAb on AHC biosensor, 100 nM antigen
HEWL-Hel-102 (hen) [13] = biological target: HEWL-Hel-102 (hen) (UniProt P00698); assay: BLI, mAb on AHC biosensor, 100 nM antigen
HEWL-Hel-104 (hen) [14] = biological target: HEWL-Hel-104 (hen) (UniProt P00698); assay: BLI, mAb on AHC biosensor, 100 nM antigen

UniProt P00698, sequence (P00698 19-147 limits assumed): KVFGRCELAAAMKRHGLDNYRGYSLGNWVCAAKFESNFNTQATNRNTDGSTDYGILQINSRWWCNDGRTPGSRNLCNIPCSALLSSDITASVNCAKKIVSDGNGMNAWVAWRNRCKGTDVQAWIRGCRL

D1.3 (antibody)
Kd (HEWL-Hel-1024 (hen) [1]): 11 nM | Kd [2]: 0.58 nM | Kd (HEWL-Full12 (hen) [3]): 27 nM | Kd (HEWL-Full24 (hen) [4]): 11 nM

D11.15 (antibody)
Kd [2]: 2.3 nM | EC50 (read off the curve) [5]: 0.5 nM

HyHEL-5 (antibody)
Kd [2]: 0.018 nM | Kd (HEWL-Full12 (hen) [6]): 0.36 nM | Kd (HEWL-Full24 (hen) [7]): 0.17 nM | Kd (HEWL-Hel-1012 (hen) [8]): 0.11 nM | Kd (HEWL-Hel-102 (hen) [9]): 0.12 nM | Kd (HEWL-Hel-1024 (hen) [10]): 0.2 nM | Kd (HEWL-Hel-104 (hen) [11]): 0.14 nM

HyHEL-10 (antibody)
Kd (HEWL-Hel-1012 (hen) [12]): 0.055 nM | Kd (HEWL-Hel-102 (hen) [13]): 0.068 nM | Kd (HEWL-Hel-1024 (hen) [1]): 0.26 nM | Kd (HEWL-Hel-104 (hen) [14]): 0.091 nM
